Biological target: T1, syntaxin 1A (Homo sapiens, UniProt Q16623)
T1 construct: expressed in transfected cells; host or cells: yeast (two-hybrid; cotransformations and yeast matings)
Assay: yeast two-hybrid screen (cotransformations and yeast matings)
Type: binding
Settings: yeast two hybrid system
Text: The present inventors completed a yeast two-hybrid screen using Syt 1, syntaxin 1A and synaptobrevin 2 (Vamp 2). Recombinant and native Syt-1 and syntaxin 1A were shown previously to interact in a calcium dependent manner. […] Screens performed using two different approaches—cotransformations and yeast matings—gave identical findings.

T1 sequence (Q16623 whole entry, species assumed): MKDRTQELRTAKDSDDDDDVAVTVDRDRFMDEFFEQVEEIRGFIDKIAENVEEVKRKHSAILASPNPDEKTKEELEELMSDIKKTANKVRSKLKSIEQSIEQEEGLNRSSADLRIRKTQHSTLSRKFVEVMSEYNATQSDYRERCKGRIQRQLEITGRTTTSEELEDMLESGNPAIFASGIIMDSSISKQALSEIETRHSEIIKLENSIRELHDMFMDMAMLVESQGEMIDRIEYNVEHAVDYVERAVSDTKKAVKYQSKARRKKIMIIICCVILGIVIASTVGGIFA

Row | direct interaction with syntaxin 1A | Substance
1 | did not | Syt-1: synaptotagmin I protein used in yeast two-hybrid screen
2 | interact directly | synaptobrevin: synaptobrevin 2 (Vamp 2) protein used in yeast two-hybrid screen

Source: patent US20020081570A1, “System to detect protein-protein interactions” (priority 2000, published 2002)
